Tested on: O=[N+]([O-])c1ccccc1O[C@@H]1O[C@H](CO)[C@H](O)[C@H](O)[C@H]1O
Assay: purified protein
Details: 35 °C, 50 mM sodium phosphate pH 8, ONPG 0.1–5 mM

## recombinant Gal (β-galactosidase) (Alteromonas sp.)
  Km: 140 µM
  Vmax: 465 µmol/min/mg
  kcat: 3690 s⁻¹
  kcat/Km: 2.63e+07 M⁻¹ s⁻¹
